Experimental data from the DeepSol protein solubility set.

Assay: soluble on expression in E. coli; label from the status in PepcDB or PDB records

Sequence | soluble on expression in E. coli
MRPIEEFVYVGNQVIVPDQASLMRCYYPIIGGEGYALYQYFVAFYDNGNHRHKFATILNHLNFGMQPLQESLAVLTAVDLLAFYHSPQGIYVVELKSPLSIEQFLKHAVYSSLLEQKIGEPAVDALKPTSLHGLQDLSKRFSDVFTDERLAQKSVSEIKPKNSFDLISFRNRMQADGLVFTDEKTDVPEIYKLSETYDMNWYDTYLLSKKTAVNHRIIVKRMQVQLEQAQAQKLGGDSALTETEKKILKAVKSGKPVDYLQSAKGPGGTVTNSEKKILTDLAQRGFMDEVINLMVAYSLGRTRSTNVNREYISKVANDFDFKKIVTAEQGLLALRSGYDKKSQRAKDDSKKKTNVPSWSDPDYDNQTNQADQAKLDEIRRRALAKLEKG | not soluble
MSLGSNPPTKILDFLFLGGVSDATNPEFLRRENIVTILNVSREEYWSVDKGITIHPFPLEDNAEENIRKFFSHTYRLLEAARSSASPARPPCVLVHSRYGISRSVTIVLAYLMRRNGWSLNDALQYVMCRRPHVEPNVGFMNVLLSFQRDMDPQKRDIQRNEGHHHHHH | not soluble
MGSDKIHHHHHHMPFSSAALHALLQPGVSERWQAVQRLLHPEMLVLANRAAERAAALLPQQWPLYELSFKSRRAIDRGGGRRDPITDYWFAFDRPPRGAGVMLTVSGIERTVTVGLQLWGVRRPQLAHLWSQARPVWEALIDRIEHEGQARFAGRRPPMTGMRWIDHYLNSRAHYLWAGFVYDWNALPTAERLIDDICALLPLNEALMEQAEIDLATTNTLRETPARYLTGAPSVAQIVMSIKRRGMIIDERTLHAFHLAVQARPLVILAGPSGSGKTWLTRLYADALIGIGEGQPNPCYLLVAVQPDWHSARDLLGYYNSLTGLYQPTPFLNFLLKAAADPDQTYIVCLDEMNLARPEYYLAPILSAMEAVEGLIDLGTPLAETPLAGGGVVRNPIRLPINLRLIGTINVDESTFALSDKVLDRANLIELGTVDMAALALTVSDSKRSGLADIERHPAPPDCCRKAGRLPRLARDTWLRWAGNRYERFRSTRSSDSAAPATALAR | not soluble
MFARSAQRFSDGDRLEVGGWPVRLKVDGRARRISLRVDRARSEIVALSPTPRRLNEAVAFAQEKAGWIAKQLAALPERMSLAPGGVLRLNDKPFRLEVGAGRARIDGDRIVAPDDANWGLKVIRLAKREALTVLTERTAIHAAALGRPVPSVAIADPKARWGSCRPATSRAPAAIRYSWRLILAPAVVADYVAAHECAHLIEANHGPRFWALCEQLIGDPTPHRAWLRAHAAELHAIGALEHHHHHH | not soluble
MGSDKIHHHHHHMMCFSCRVTSDAKVVFLDVIPTPQDIISDFSYICLLLTIKFEYMENISRRTAIKTFLAGGVALATTGIEAAAAAKKKTDVKEPLKGNVRHSVSKWCFGDYKLDEFCEICKHIGIESVELLDPVDWPIVQKHGLTVAMAQGAGLGIDRGFNDPALHDELVASYEKVIPMVADAGLTNLICFSGRRNGVTDLQGWENCEKGLKRLIPLAEKHKVVLTMELLNSVGHKDYLCDHTVWGAELCRRIGSPNFKLLYDIYHMQIMEGNIIENIRKYHPYFSHVHTGGSPGRAEIDETQELYYPAIIKALMETGYKGFVGQEFVPAQEDKIASLEKCIRICDV | not soluble
VIRPKTLGQKHYVDAIDTNTIVFGLGPAGSGKTYLAMAKAVQALQSKQVSRIILTRPAVEAGEKLGFLPGTLNEKIDPYLRPLHDALRDMVEPEVIPKLMEAGIVEVAPLAYMRGRTLNDAFVILDEAQNTTPAQMKMFLTRLGFGSKMVVTGDITQVDLPGGQKSGLRLVRHILRGVDDVHFSELTSSDVVRHQLVGHIVDAYEDYEEREARELKRKRQETRP | soluble
LPLRESHTAHQATDFGVKVFQQVVQASKDRNVVFSPYGVSSVLAMLQMTTAGKTRRQIQDAMGFKVNEKGTAHALRQLSKELMGPWNKNEISTADAIFVQRDLELVQGFMPHFFKLFQTMVKQVDFSEVERARFIINDWVERHTKGMINDLLAKGAVDELTRLVLVNALYFSGQWKTPFLEASTHQRLFHKSDGSTVSVPMMAQSNKFNYTEFTTPDGLEYDVVELPYQGDTLSMFIAAPFEKDVHLSALTNILDAELIRQWKGNMTRLPRLLILPKFSLETEVDLRGPLEKLGMPDMFSATLADFTSLSDQEQLSVAQALQKVRIEVNESGTVASSSTAFVISARMAPTEMVIDRSFLFVVRHNPTETILFMGQVMEP | soluble
MAHHHHHHMTGVASLHRESERSKRKSSGGERNADEADTEGTAGARNAHAKQKQKTVRQGVAVCVWCCGCLPALTARKQNKRERNVCSAPQALVARPHVTAPSARRSSRPLLMRAAGEAHRAVVMSVSVGVRVEQLGGKHTAPLTGRVQKKQLKEGRVEKKRTSTVIAPESKKEKGW | not soluble
MSLFSISNLSFIGFLKRIVFSSDSLPGKWEHRKFRFMYILRCSINPVVSIRYYYELRSLPCIEDILAIHPTLPARIHRPYLHKGGRAWTRGQYILEHYRFVQNLPEKYSKFLFPQKSVSLVQFIGKDGENFDIQCSPSGFDREGELMLSLFYNKTVIARLTYSVILTQNGHIAFIGGLQGAPKNTGPDVIRCATRACYGLFPKRIIFEAFCALMKACNVSECLAVSEHSHVFRQLKYWYQKRKTFVAVYSDFWDSVPGKTCGDWYKLPTQVIRKPLTDIPIKKRSDYRKQYALLDYIHETTIRSLDAYPVHSKHQNSNEGHHHHHH | not soluble
MGSDKIHHHHHHMKLVDSIYGTYTVEPVISELIDSAPVQRLKGIHQGGACYIVKPSWNVTRFEHSIGVMLLIRKLGGSLEEQIAGLLHDVSHTAFSHVIDYVLAEEEEDYHEQIYEQVIRASEIPHILDKYGFDLERIVLNHSCWTLLEQPSPSLCADRIDYTLRDLYTYGHINKQEVDDFIANLIVVDGIISTSSVAGAEWFVRAYYKEVIDFFLDPLNVYGSSVLTSVLKSAVERKALGLDDFLKTDEELMEQLQRLNDDSIQKQLATLHPHVNVRENENHYHIHKTNKLRLIDPHVYLDGTFQRISSLSKQVKKWNEEAQRRADRGAYVEVLSS | not soluble
MSLSLNFLDFEKPIVELETKIQALRDVSRHSTSASVDLDKELEQLEKKSLELKKKIFSDLGAWQVAQLARHPQRPYTLDYLKHIFTEFDELAGDRAYADDKAIVGGIARLEGRSVMVIGHQKGRETREKVKRNFGMPKPEGYRKALRLMEMAERFNMPIITFIDTAGAYPGVGAEERGQSEAIAKNLKVMSGLKVPVICNVVGEGGSGGALAIGVGDYVNMLQYSTYSVISPEGCASILWRDSDKAPQAAEAMGLIAPRLKELELIDEIIEEPLGGAHRDHKQTAENVKATLLRQLADLDALDHENLLERRYQRLMNYGYCEGHHHHHH | soluble
MKYVFIENHRAEFSIKAMCRVLRVARSGWYVWLRRRHQMSLRQQFRLTCDAAVHKAFFEAKQRYGAPRLADELPEFNIKTIAASLRRQGLRAKASRKFSPVSYRAHGLPVLENLLEQDFSASGPKPEVGG | not soluble
RVARGWGGCGACGGSGIVGQGKGEPSRRRGRAAGRPQSMERGKMAEAESLETAAEHERILREIESTDTACIGPTLRSVYDGEEHGRFMEKLETRIRNHDREIEKMCNFHYQGFVDSITELLKVRGEAQKLKNQVTDTNRKLQHEGKELVIAMEELKQCRLQQRNISATVDKLMLCLPVLEMYSKLRDQMKTKRHYPALKTLEHLEHTYLPQVSHYRFCKVMVDNIPKLREEIKDVSMSDLKDFLESIRKHSDKIGETAMKQAQQQRNLDNIVLQQPRIGSKRKSKKDAYIIFDTEIESTSPKSEQDSGILDVEDEEDDEEVPGAQDLVDFSPVYRCLHIYSVLGARETFENYYRKQRRKQARLVLQPPSNMHETLDGYRKYFNQIVGFFVVEDHILHTTQGLVNRAYIDELWEMALSKTIAALRTHSSYCSDPNLVLDLKNLIVLFADTLQVYGFPVNQLFDMLLEIRDQYSETLLKKWAGIFRNILDSDNYSPIPVTSEEMYKKVVGQFPFQDIELEKQPFPKKFPFSEFVPKVYNQIKEFIYACLKFSEDLHLSSTEVDDMIRKSTNLLLTRTLSNSLQNVIKRKNIGLTELVQIIINTTHLEKSCKYLEEFITNITNVLPETVHTTKLYGTTTFKDARHAAEEEIYTNLNQKIDQFLQLADYDWMTGDLGNKASDYLVDLIAFLRSTFAVFTHLPVSGSCSYFVLYI | soluble
